B1: VP16-CIB1 (natural protein, UniProt Q8GY61 1-335, looked up)
chain: MNGAIGGDLLLNFPDMSVLERQRAHLKYLNPTFDSPLAGFFADSSMITGGEMDSYLSTAGLNLPMMYGETTVEGDSRLSISPETTLGTGNFKKRKFDTETKDCNEKKKKMTMNRDDLVEEGEEEKSKITEQNNGSTKSIKKMKHKAKKEENNFSNDSSKVTKELEKTDYIHVRARRGQATDSHSIAERVRREKISERMKFLQDLVPGCDKITGKAGMLDEIINYVQSLQRQIEFLSMKLAIVNPRPDFDMDDIFAKEVASTPMTVVPSPEMVLSGYSHEMVHSGYSSEMVNSGYLHVNPMQQVNTSSDPLSCFNNGEAPSMWDSHVQNLYGNLGV

Assays:
[1] = molecular target: T1, CIB1-CreC (UniProt Q8GY61)
T1 sequence (Q8GY61 whole entry, looked up): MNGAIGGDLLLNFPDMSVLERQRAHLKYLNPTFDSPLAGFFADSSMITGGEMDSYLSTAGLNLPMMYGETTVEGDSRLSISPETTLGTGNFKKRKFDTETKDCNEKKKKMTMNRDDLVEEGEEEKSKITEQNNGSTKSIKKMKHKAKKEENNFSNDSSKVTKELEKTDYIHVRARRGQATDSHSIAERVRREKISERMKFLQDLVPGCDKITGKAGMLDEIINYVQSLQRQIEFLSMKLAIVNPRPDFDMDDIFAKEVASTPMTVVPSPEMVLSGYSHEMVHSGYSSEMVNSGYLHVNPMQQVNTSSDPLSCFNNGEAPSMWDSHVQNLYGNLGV

[2] = molecular target: LexABD-CRY2(535) (Arabidopsis thaliana, UniProt Q96524 1-535); assay: two-hybrid

| Molecule | Cre recombination with extended 24 hour illumination [1] [%] | fold reduction in dark activity against LexABD-CRY2PHR [2] [fold] |
| --- | --- | --- |
| CRY2(L348F)-CreN (from UniProt Q96524 1-612; P06956 1-104) | > 50 |  |
| B1 |  | 26 |
